± gives the uncertainty stated by the source.
B1: Myocardin, residues 363 to 406; numbered along this chain, Q8IZQ8 (parent)
chain: KPGPLPPNLDDLKVSELRQQLRIRGLPVSGTKTALMDRLRPFQD

Variants of: B1
Test: abundance fitness (aPCA) (normalised: wild type 0, dead -1); higher = more abundant; growth selection in yeast, the domain comes from the species named
Conditions: Homo sapiens

Abundance fitness of substitutions, site by site:
L9: T -0.731 ± 0.12 | C -0.371 ± 0.19 | E -0.807 ± 0.1 | P -0.513 ± 0.12 | V -0.024 ± 0.072 | S -0.605 ± 0.14 | R -0.524 ± 0.058 | M -0.543 ± 0.13 | I -0.289 ± 0.088 | G -0.491 ± 0.061 | K -0.741 ± 0.19 | Q -0.278 ± 0.083 | A -0.876 ± 0.12 | W -0.615 ± 0.1 | D -0.873 ± 0.15 | H -0.542 ± 0.15 | N -0.871 ± 0.3
L12: S -0.274 ± 0.12 | F 0.053 ± 0.25 | G -0.638 ± 0.069 | K -0.284 ± 0.35 | N -0.507 ± 0.21 | H -0.614 ± 0.14 | V -0.497 ± 0.068 | E -0.369 ± 0.088 | C -0.499 ± 0.13 | W -0.315 ± 0.085 | Y 0.298 ± 0.16 | Q -0.506 ± 0.34 | P -0.899 ± 0.21 | A -0.425 ± 0.061 | R -0.394 ± 0.064 | T -0.401 ± 0.1 | D -0.429 ± 0.09
S15: F -0.22 ± 0.084 | R -0.22 ± 0.065 | Y -0.274 ± 0.13 | W -0.163 ± 0.085 | V -0.243 ± 0.085 | A 0.113 ± 0.068 | C -0.168 ± 0.098 | M -0.245 ± 0.12 | L -0.688 ± 0.17 | E 0.171 ± 0.14 | I -0.23 ± 0.11 | P -0.346 ± 0.077 | G -0.122 ± 0.056 | H 0.023 ± 0.18 | N -0.288 ± 0.23 | T 0.071 ± 0.24 | D 0.015 ± 0.079 | Q -0.261 ± 0.076
Q20: G -0.697 ± 0.073 | F -0.093 ± 0.16 | C -0.395 ± 0.11 | A 0.004 ± 0.059 | D -0.608 ± 0.1
D11: P -0.714 ± 0.11 | C -0.272 ± 0.26 | V 0 ± 0.087 | Q -0.007 ± 0.075 | A 0.085 ± 0.063 | S 0.27 ± 0.082 | N -0.004 ± 0.12 | M 0.063 ± 0.11 | K 0.083 ± 0.066 | L 0.009 ± 0.072 | W -0.441 ± 0.093 | T 0.135 ± 0.1 | G -0.074 ± 0.055 | Y -0.183 ± 0.14 | R -0.135 ± 0.057 | E -0.082 ± 0.093 | F -0.175 ± 0.16
R18: F -0.481 ± 0.16 | H -0.321 ± 0.24 | T -0.388 ± 0.1 | A -0.366 ± 0.074 | Y -0.744 ± 0.31 | L -0.44 ± 0.091 | Q -0.179 ± 0.11 | C 0.116 ± 0.26 | I -0.133 ± 0.47 | P -0.727 ± 0.15 | W -0.861 ± 0.19 | M -0.503 ± 0.11 | K 0.032 ± 0.1 | E -0.177 ± 0.15 | V -0.312 ± 0.076 | G -0.888 ± 0.12
E16: R -0.827 ± 0.12 | P -0.939 ± 0.2 | M -0.615 ± 0.078 | L -0.826 ± 0.12 | Y -0.323 ± 0.17 | S -0.47 ± 0.072 | T -0.515 ± 0.12 | D -0.27 ± 0.14 | W -0.613 ± 0.15 | V -0.481 ± 0.079 | K -0.842 ± 0.28 | A -0.295 ± 0.11 | H -0.983 ± 0.18
V14: P -0.247 ± 0.16 | M -0.116 ± 0.11 | S -0.486 ± 0.15 | L -0.16 ± 0.077 | W -1.02 ± 0.13 | T -0.222 ± 0.091 | Q -0.994 ± 0.26 | C -0.603 ± 0.19 | H -0.396 ± 0.19 | K -0.157 ± 0.1 | R -1.02 ± 0.11 | D -0.702 ± 0.33 | G -0.757 ± 0.1 | F -0.939 ± 0.43 | A -0.465 ± 0.14
L17: G -0.649 ± 0.064 | M -0.265 ± 0.076 | I -0.6 ± 0.44 | H -0.878 ± 0.31 | E -0.454 ± 0.09 | V -0.606 ± 0.084 | N -1 ± 0.35 | C -1.31 ± 0.36 | W -0.798 ± 0.099 | R -0.606 ± 0.071 | D -0.86 ± 0.42 | K -0.345 ± 0.12 | Y -1.02 ± 0.22 | A -0.583 ± 0.081 | T -0.779 ± 0.13
N8: S -0.444 ± 0.085 | W -0.915 ± 0.16 | R -0.116 ± 0.058 | V -0.048 ± 0.063
D10: V 0.076 ± 0.068 | Q -0.163 ± 0.14 | E 0.287 ± 0.071 | W 0.104 ± 0.082 | R -0.147 ± 0.065 | S -0.257 ± 0.075 | C 0.245 ± 0.099 | T -0.178 ± 0.29 | F -0.582 ± 0.36 | H -0.315 ± 0.13 | P -0.552 ± 0.16 | N -0.078 ± 0.17 | K -0.076 ± 0.11 | A 0.178 ± 0.081 | G 0.311 ± 0.058 | Y 0.026 ± 0.32
Q19: V -0.544 ± 0.096 | D -0.05 ± 0.14 | S -0.261 ± 0.09 | E 0.029 ± 0.087 | H -0.412 ± 0.41 | M -0.206 ± 0.18 | T -0.439 ± 0.17 | G -0.368 ± 0.066 | Y -0.124 ± 0.14 | W -0.717 ± 0.18 | L -0.198 ± 0.088 | A -0.194 ± 0.073 | P -0.761 ± 0.13 | C -0.464 ± 0.093

— the Human Domainome abundance scans (Beltran et al. 2025)
